Like-named read-outs stand apart in the source and are kept apart here.
Tests used:
Assay in all cases: two-hybrid library CCmax;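 also: natural log of median RNA to DNA barcode read ratio; higher means stronger binding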
4H2504-AA = biological target: T1, 4H2504-AA; conditions: mean of both orientations
T1 chain: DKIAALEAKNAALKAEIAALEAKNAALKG

4H3493-AA = biological target: T2, 4H3493-AA
T2 chain: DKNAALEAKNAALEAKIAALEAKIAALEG

4H1392-AA = biological target: T3, 4H1392-AA; conditions: mean of both orientations
T3 chain: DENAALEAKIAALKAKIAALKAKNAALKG

4H43-AA = biological target: T4, 4H43-AA; conditions: mean of both orientations
T4 chain: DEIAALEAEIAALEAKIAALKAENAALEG

4H3625-AA = biological target: T5, 4H3625-AA; conditions: mean of both orientations
T5 chain: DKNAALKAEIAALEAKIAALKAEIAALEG

4H337-AA = biological target: T6, 4H337-AA; conditions: mean of both orientations
T6 chain: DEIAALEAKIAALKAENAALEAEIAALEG

P6-AA-1HAA-N = biological target: T7, P6-AA-1HAA-N; conditions: mean of both orientations
T7 chain: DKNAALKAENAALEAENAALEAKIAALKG

4H2888-AA = biological target: T8, 4H2888-AA; conditions: mean of both orientations
T8 chain: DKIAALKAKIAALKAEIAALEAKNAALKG

4H510-AA = biological target: T9, 4H510-AA; conditions: mean of both orientations
T9 chain: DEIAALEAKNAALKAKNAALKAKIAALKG

4H2622-AA = biological target: T10, 4H2622-AA; conditions: mean of both orientations
T10 chain: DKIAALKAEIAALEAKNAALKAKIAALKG

4H3855-AA = biological target: T11, 4H3855-AA; conditions: mean of both orientations
T11 chain: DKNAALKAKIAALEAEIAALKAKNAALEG

4H1257-AA = biological target: T12, 4H1257-AA
T12 chain: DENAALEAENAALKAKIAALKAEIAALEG

4H687-AA = biological target: T13, 4H687-AA; conditions: mean of both orientations
T13 chain: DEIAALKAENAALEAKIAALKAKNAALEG

4H4001-AA = biological target: T14, 4H4001-AA; conditions: mean of both orientations
T14 chain: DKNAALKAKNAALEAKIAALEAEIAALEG

4H967-AA = biological target: T15, 4H967-AA; conditions: mean of both orientations
T15 chain: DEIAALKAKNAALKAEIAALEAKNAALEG

4H2442-AA = biological target: T16, 4H2442-AA; conditions: mean of both orientations
T16 chain: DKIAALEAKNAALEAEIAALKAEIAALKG

4H1558-AA = biological target: T17, 4H1558-AA; conditions: mean of both orientations
T17 chain: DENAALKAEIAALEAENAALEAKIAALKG

4H1454-AA = biological target: T18, 4H1454-AA; conditions: mean of both orientations
T18 chain: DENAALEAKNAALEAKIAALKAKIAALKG

4H568-AA = biological target: T19, 4H568-AA; conditions: mean of both orientations
T19 chain: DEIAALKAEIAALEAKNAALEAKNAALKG

4H130-AA = biological target: T20, 4H130-AA; conditions: mean of both orientations
T20 chain: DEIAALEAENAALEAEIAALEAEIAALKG

4H1349-AA = biological target: T21, 4H1349-AA; conditions: mean of both orientations
T21 chain: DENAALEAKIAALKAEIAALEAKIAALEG

4H918-AA = biological target: T22, 4H918-AA; conditions: mean of both orientations
T22 chain: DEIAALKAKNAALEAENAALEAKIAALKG

4H3354-AA = biological target: T23, 4H3354-AA; conditions: mean of both orientations
T23 chain: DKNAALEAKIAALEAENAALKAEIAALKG

4H953-AA = biological target: T24, 4H953-AA; conditions: mean of both orientations
T24 chain: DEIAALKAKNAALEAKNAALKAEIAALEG

4H2575-AA = biological target: T25, 4H2575-AA
T25 chain: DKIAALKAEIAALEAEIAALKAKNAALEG

4H780-AA = biological target: T26, 4H780-AA; conditions: mean of both orientations
T26 chain: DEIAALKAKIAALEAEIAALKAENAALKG

P12-AA = biological target: T27, P12-AA; conditions: mean of both orientations
T27 chain: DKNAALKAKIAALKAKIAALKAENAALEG

P11-AA = biological target: T28, P11-AA; conditions: mean of both orientations
T28 chain: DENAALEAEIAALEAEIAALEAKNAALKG

P7-AA = biological target: T29, P7-AA; conditions: mean of both orientations
T29 chain: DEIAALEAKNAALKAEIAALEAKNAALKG

AP7-AA = biological target: T30, AP7-AA; conditions: mean of both orientations
T30 chain: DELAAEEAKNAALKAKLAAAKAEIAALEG

4H1867-AA = biological target: T31, 4H1867-AA; conditions: mean of both orientations
T31 chain: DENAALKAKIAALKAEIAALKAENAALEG

O6-AA = biological target: T32, O6-AA; conditions: mean of both orientations
T32 chain: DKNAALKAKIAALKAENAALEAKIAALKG

AP4-AA = biological target: T33, AP4-AA; conditions: mean of both orientations
T33 chain: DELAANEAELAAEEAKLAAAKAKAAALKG

P4-AA = biological target: T34, P4-AA; conditions: mean of both orientations
T34 chain: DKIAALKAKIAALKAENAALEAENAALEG

zCON9_A = biological target: T35, zCON9_A
T35 chain: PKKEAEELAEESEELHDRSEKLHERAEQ

4H2151-AA = biological target: T36, 4H2151-AA; conditions: mean of both orientations
T36 chain: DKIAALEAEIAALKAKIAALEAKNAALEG

4H_APH3 = biological target: T37, 4H_APH3
T37 chain: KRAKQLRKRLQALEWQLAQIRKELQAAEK

4H1552-AA = biological target: T38, 4H1552-AA; conditions: mean of both orientations
T38 chain: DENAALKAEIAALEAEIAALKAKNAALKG

4H1636-AA = biological target: T39, 4H1636-AA; conditions: mean of both orientations
T39 chain: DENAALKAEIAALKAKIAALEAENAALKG

4H_APH2 = biological target: T40, 4H_APH2
T40 chain: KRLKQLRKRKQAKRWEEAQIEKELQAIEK

P8-AA = biological target: T41, P8-AA; conditions: mean of both orientations
T41 chain: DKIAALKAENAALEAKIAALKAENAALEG

4H_APH4 = biological target: T42, 4H_APH4
T42 chain: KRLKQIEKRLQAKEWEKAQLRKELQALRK

4H123-AA = biological target: T43, 4H123-AA; conditions: mean of both orientations
T43 chain: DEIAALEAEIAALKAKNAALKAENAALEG

DEIAALEAENAALKAKNAALKAEIAALEG [4H249-AA]
interaction score (4H2504-AA): -1.35
interaction score (4H3493-AA): -1.67

DENAALEAKIAALKAKIAALKAEIAALEG [4H1385-AA]
interaction score (4H1392-AA): -0.355
interaction score (4H43-AA): 1.97
interaction score (4H3625-AA): 1.76
interaction score (4H337-AA): 0.173
interaction score (P6-AA-1HAA-N): -0.2
interaction score (4H2888-AA): 1.96
interaction score (4H510-AA): -1.54
interaction score (4H2622-AA): 1.24

DENAALEAENAALKAKIAALKAEIAALEG [4H1257-AA]
interaction score (4H3855-AA): -0.401
interaction score (4H1257-AA): 0.41
interaction score (4H687-AA): -1.24
interaction score (4H4001-AA): -0.973
interaction score (4H967-AA): -0.389
interaction score (4H2442-AA): -1.57
interaction score (4H1558-AA): -0.232
interaction score (4H1454-AA): -0.555
interaction score (4H568-AA): -0.953
interaction score (4H130-AA): 1.9
interaction score (4H1349-AA): 0.365
interaction score (4H918-AA): -1.05
interaction score (4H3354-AA): -1.6
interaction score (4H953-AA): -1.45

DKIAALEAEIAALKAKNAALEAKIAALEG [4H2165-AA]
interaction score (4H2575-AA; mean of both orientations): -1.19
interaction score (4H780-AA): -1.4

DENAALEAKIAALKAEIAALEAKIAALKG [4H1350-AA]
interaction score (4H1392-AA): -0.186
interaction score (4H43-AA): 2.09
interaction score (4H3625-AA): 1.97
interaction score (4H337-AA): 1.52
interaction score (4H2888-AA): 2.21
interaction score (4H510-AA): -1.17
interaction score (4H2622-AA): 1.12

DENAALKAKIAALEAKNAALEAKIAALEG [4H1845-AA]
interaction score (4H3855-AA): -1.94
interaction score (4H687-AA): -1.51
interaction score (4H4001-AA): -1.9
interaction score (4H967-AA): -1.65
interaction score (4H2442-AA): -1.87
interaction score (4H568-AA): -1.18
interaction score (4H918-AA): -1
interaction score (4H3354-AA): -1.37
interaction score (4H953-AA): -1.52

DENAALEAKIAALKAKNAALKAEIAALEG [4H1401-AA]
interaction score (P12-AA): -1.92
interaction score (P11-AA): 0.388
interaction score (P7-AA): -1.39
interaction score (AP7-AA): -1.37
interaction score (4H1867-AA): -1.22
interaction score (O6-AA): 1.98
interaction score (AP4-AA): -1.22
interaction score (P4-AA): -1.93
interaction score (zCON9_A): -1.95
interaction score (4H2151-AA): -1.5
interaction score (4H_APH3): -1.06
interaction score (4H1552-AA): -0.741
interaction score (P6-AA-1HAA-N): 1.57
interaction score (4H1636-AA): -1.81
interaction score (4H_APH2): -2.35
interaction score (P8-AA): 0.854
interaction score (4H_APH4): -1.85

DENAALEAENAALEAEIAALEAEIAALEG [4H1153-AA]
interaction score (4H123-AA): -2.05
interaction score (4H1867-AA): 0.531
interaction score (4H2575-AA): -0.264
interaction score (4H2151-AA): -1.21
interaction score (4H1552-AA): -0.818
interaction score (4H1636-AA): -1.31
interaction score (4H780-AA): -1.44

DKNAALKAEIAALEAENAALEAKIAALKG [4H3606-AA]
interaction score (P12-AA): -0.654
interaction score (P11-AA): -1.15
interaction score (P7-AA): 1.24
interaction score (AP7-AA): -1.35
interaction score (AP4-AA): -1.63
interaction score (P4-AA): -0.573
interaction score (zCON9_A): -1.36
interaction score (4H_APH3): -1.55
interaction score (4H_APH2): -2.3
interaction score (P8-AA): -0.645
interaction score (4H_APH4): -1.64

DEIAALEAENAALEAKIAALKAENAALEG [4H171-AA]
interaction score (O6-AA): -0.729

DENAALEAEIAALEAKIAALEAKNAALKG [4H1064-AA]
interaction score (4H1257-AA; mean of both orientations): 0.616
interaction score (4H1558-AA): -1.61
interaction score (4H1454-AA): 0.729
interaction score (4H130-AA): -0.874
interaction score (4H1349-AA): 0.539

DENAALEAEIAALKAKNAALEAKIAALKG [4H1142-AA]
interaction score (4H123-AA): -1.25

DENAALKAEIAALKAENAALKAEIAALKG [4H1626-AA]
interaction score (4H2504-AA): -1.49
interaction score (4H3493-AA; mean of both orientations): -1.45
